Results: US20220281976A1 (Alector, published 2022)

T1: mouse CD33 Fc fusion protein (mouse, UniProt Q63994 18-240, limits assumed)
T1 construct: also called mCD33-Fc
T1 sequence: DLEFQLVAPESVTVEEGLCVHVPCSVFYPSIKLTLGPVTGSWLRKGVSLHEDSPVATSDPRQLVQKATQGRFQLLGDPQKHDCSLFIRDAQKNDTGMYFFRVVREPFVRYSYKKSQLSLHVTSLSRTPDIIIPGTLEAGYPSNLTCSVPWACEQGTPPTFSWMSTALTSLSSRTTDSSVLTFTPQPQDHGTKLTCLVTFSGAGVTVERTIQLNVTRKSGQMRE


Columns and labels:
human CD33 [1] = target: T2, human CD33 (human, UniProt P20138 18-364); assay: flow cytometry, human primary dendritic cells;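 note: binding of anti-CD33 antibodies (10 ug/ml, 1 h on ice) to human primary dendritic cells, detected with a PE-labelled secondary antibody, reported as flow cytometry MFI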
T2 construct: CD33 on human primary dendritic cells, macrophages, monocytes and T cells and on CHO cells expressing recombinant human CD33; also called Siglec-3; hCD33
T2 sequence (P20138 18-364): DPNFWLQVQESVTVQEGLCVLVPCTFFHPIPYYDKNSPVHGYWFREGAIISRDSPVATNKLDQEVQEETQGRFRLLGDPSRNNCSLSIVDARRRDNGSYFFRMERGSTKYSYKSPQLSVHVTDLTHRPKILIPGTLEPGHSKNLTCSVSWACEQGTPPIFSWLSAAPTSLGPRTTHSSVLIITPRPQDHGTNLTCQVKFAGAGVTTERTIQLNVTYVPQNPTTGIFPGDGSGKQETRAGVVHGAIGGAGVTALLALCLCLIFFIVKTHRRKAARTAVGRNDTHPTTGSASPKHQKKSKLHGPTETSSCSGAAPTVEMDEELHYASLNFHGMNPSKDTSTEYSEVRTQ

[2] = target: T3, human CD33 Fc fusion protein (human, UniProt P20138 18-259); assay: RBC adhesion to plate-bound CD33-Fc; antibody 1.0 ug/ml;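 note: red blood cells adhering to plate-coated CD33-Fc after 1 h antibody pretreatment, then 1 h at room temperature, bound cells read as peroxidase activity after lysis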
T3 construct: also called hCD33-Fc; human CD33/Fc chimera (R&D Systems)
T3 sequence (P20138 18-259 limits assumed): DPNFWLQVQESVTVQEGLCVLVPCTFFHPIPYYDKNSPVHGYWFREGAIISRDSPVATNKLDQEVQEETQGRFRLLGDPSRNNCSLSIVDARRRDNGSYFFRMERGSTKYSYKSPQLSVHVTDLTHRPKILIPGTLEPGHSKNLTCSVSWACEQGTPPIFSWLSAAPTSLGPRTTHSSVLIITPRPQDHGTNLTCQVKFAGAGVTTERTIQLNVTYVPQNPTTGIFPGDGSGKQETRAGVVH
Experimental: (§1) Briefly, 5 ug/ml CD33-Fc was coated overnight at RT in 96 well Immunolon plates, then washed with PBS, blocked for one hour with binding buffer (PBS containing %0.25 BSA 1 mM CaCl₂). CD33 antibodies (0.5 ug/ml or 1.0 ug/ml) or Fabs (25 ug/ml) were bound for one hour at RT with gentle rocking. After removal of unbound antibody, red blood cells were added to each well at a concentration of 3.0×10⁶ cells per ml and incubated at RT for one hour. Unbound RBCs were then carefully washed off 3× with PBS, and water was added to each well for hypotonic lysis of bound RBCs. The plate was transferred to −80° C. for 10 minutes, followed by 37° C. for 15 minutes. Bound RBCs were detected by peroxidase activity, followed by 2N sulfuric acid to stop the reaction.

[3] = target: T1, mouse CD33 Fc fusion protein; assay: ForteBio BLI or MSD-SET
human CD33 [4] = target: T2, human CD33; assay: cell-based or functional assay
human CD33 [5] = target: T2, human CD33; assay: flow cytometry, human primary T cells;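 note: binding of anti-CD33 antibodies at 10 ug/ml to human primary T cells, 1 h on ice, detected with PE-labelled secondary antibody, read as flow cytometry MFI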
[6] = target: T4, human monomeric His tagged CD33 protein (human, UniProt P20138 18-259); assay: ForteBio BLI or MSD-SET, IgG, monomeric antigen;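 note: BLI: antibodies captured on AHQ sensors, 100 nM antigen association 5 min, dissociation 5 min, 1:1 fit. MSD-SET: antigen fixed at 50 pM, antibody titrated, quadratic fit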
T4 construct: also called hCD33-His
T4 sequence (P20138 18-259 limits assumed): as above

human CD33 [7] = target: T2, human CD33; assay: flow cytometry, human primary monocytes; parameters: reference not given here;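 note: binding of anti-CD33 antibodies at 10 ug/ml to human primary monocytes, 1 h on ice, detected by PE-labelled secondary antibody, flow cytometry readout as mean fluorescence intensity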
[8] = target: T3, human CD33 Fc fusion protein; assay: ForteBio BLI or MSD-SET, IgG, avid;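 note: Anti-CD33 IgG affinity by BLI, IgG captured on AHQ sensors with antigen in solution and a one-to-one kinetic fit, or by MSD solution equilibrium titration with quadratic fit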
human CD33 [9] = target: T2, human CD33; assay: flow cytometry, human primary macrophages;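 note: binding of CD33 antibodies at 10 µg/ml to human primary macrophages, 1 h on ice, detected with PE-labelled secondary antibody by flow cytometry, reported as MFI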
Experimental: Initial characterization of CD33 antibodies involved determining their ability to bind CD33 expressed on a CHO cell line, on human primary monocytes, human primary macrophages, human primary dendritic cells, and on human primary T cells. Cells were harvested, plated at 10⁶/ml in a 96 well plate, and incubated in 100 ul PBS containing 2% FBS, 2 mM EDTA and 10 ug/ml Mab and Fc blocking reagent for 1 hour in ice. Cells were washed twice and incubated in 100 ul PBS containing 2% FBS, 2 mM EDTA and 5 ug/ml PE-conjugated secondary antibody for 30 minutes on ice. Cells were washed twice in cold PBS and analyze by flow cytometry on a BD FACS Canto. Data analysis and calculation of MFI values was performed with FlowJo (TreeStar) software version 10.0.7.

[10] = target: T3, human CD33 Fc fusion protein; assay: RBC adhesion to plate-bound CD33-Fc; antibody 0.5 ug/ml;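 note: Plate-coated CD33-Fc preincubated 1 h with antibody, then red blood cells added for 1 h at room temperature, adherent cells lysed and quantified via peroxidase activity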
Experimental: as §1

Binder	DC MFI (human CD33 [1])	Percent RBC Binding to CD33 [2] [%]	binding result [3]	Percent CD33 Surface Expression, DC % CD33 (human CD33 [4]) [%]	Percent CD33 Surface Expression, Monocyte % CD33 (human CD33 [4]) [%]	T cell MFI (human CD33 [5])	Kd [6] [nM]	Monocyte MFI (human CD33 [7])	Kd [8] [nM]	Macrophage MFI (human CD33 [9])	Percent RBC Binding to CD33 [10] [%]	Percent CD33 Surface Expression, Macrophage % CD33 (human CD33 [4]) [%]
C-45 (antibody, V domains shown, human IgG1) VH: not shown VL: DIQMTQSPSSVSASVGDRVTITCRASQGISSWLAWYQQKPGKAPKLLIYAASSLQSGVPSRFSGSGSGTDFTLTISSLQPEDFATYYCQQAYSFPTFGGGTKVEIK	1150	110	no binding (tested: 100 nM)	65.7	78.2	55.4	12.8	182	2.25	1010	114	–
C-5 (antibody, V domains shown, human IgG1) VH: not shown VL: EIVLTQSPGTLSLSPGERATLSCRASQSVSSSFLAWYQQKPGQAPRLLIYGASSRATGIPDRFSGSGSGTDFTLTISRLEPEDFAVYYCQQVSSFPPTFGGGTKVEIK	1460	13.8	no binding (tested: 100 nM)	43.1	54.7	357	15.6	177	3.17	866	19.8	73.3
C-24 (antibody, V domains shown, human IgG1) VH: QVQLVQSGAEVKKPGASVKVSCKASGYTFTSYYMHWVRQAPGQGLEWMGVINPSGGSTSYAQKFQGRVTMTRDTSTSTVYMELSSLRSEDTAVYYCARESQYYDVHGMDVWGQGTTVTVSS VL: DIQMTQSPSSLSASVGDRVTITCRASQSISSYLNWYQQKPGKAPKLLIYAASSLQSGVPSRFSGSGSGTDFTLTISSLQPEDFATYYCQQSVTPPLTFGGGTKVEIK	1230	8.98	no binding (tested: 100 nM)	28.8	43.1	193	6.95	165	1.54	752	13	42.7
C-27 (antibody, V domains shown, human IgG1) VH: QVQLVQSGAEVKKPGASVKVSCKASGYTFTSYYMHWVRQAPGQGLEWMGVINPSGGSTSYAQKFQGRVTMTRDTSTSTVYMELSSLRSEDTAVYYCARESQYYDVHGMDVWGQGTTVTVSS VL: DIQMTQSPSSLSASVGDRVTITCRASQSISSYLNWYQQKPGKAPKLLIYAASSLQSGVPSRFSGSGSGTDFTLTISSLQPEDFATYYCQQHYDIPLTFGGGTKVEIK	1300	12.6	no binding (tested: 100 nM)	37.8	39.1	414	10.9	113	1.67	602	15.9	46.3

Further binders by falling Kd [6], results first:

DC MFI (human CD33 [1])	Percent RBC Binding to CD33 [2] [%]	binding result [3]	Percent CD33 Surface Expression, DC % CD33 (human CD33 [4]) [%]	Percent CD33 Surface Expression, Monocyte % CD33 (human CD33 [4]) [%]	T cell MFI (human CD33 [5])	Kd [6] [nM]	Monocyte MFI (human CD33 [7])	Kd [8] [nM]	Macrophage MFI (human CD33 [9])	Percent RBC Binding to CD33 [10] [%]	Percent CD33 Surface Expression, Macrophage % CD33 (human CD33 [4]) [%]	Binder
1040	12.9	no binding (tested: 100 nM)	26.8	41.7	221	9.33	151	1.66	775	10.7	45.4	C-60 (antibody, V domains shown, human IgG1) VH: QVQLVQSGAEVKKPGASVKVSCKASGYTFTSYYMHWVRQAPGQGLEWMGVINPSGGSTSYAQKFQGRVTMTRDTSTSTVYMELSSLRSEDTAVYYCARESQYYDVHGMDVWGQGTTVTVSS VL: DIQLTQSPSSLSASVGDRVTITCRASQSISSYLNWYQQKPGKAPKLLIYAASSLQSGVPSRFSGSGSGTDFTLTISSLQPEDFATYYCQQSVHVPITFGGGTKVEIK
1130	10.7	no binding (tested: 100 nM)	24.7	37.5	191	9.16	140	1.6	598	18.2	41.5	C-59 (antibody, V domains shown, human IgG1) VH: QVQLVQSGAEVKKPGASVKVSCKASGYTFTSYYMHWVRQAPGQGLEWMGVINPSGGSTSYAQKFQGRVTMTRDTSTSTVYMELSSLRSEDTAVYYCAREGANYDSSGLDAWGQGTLVTVSS VL: not shown
1330	9.33	no binding (tested: 100 nM)	26.9	31.2	216	7.67	161	1.62	852	11.5	44.5	C-65 (antibody, V domains shown, human IgG1) VH: QVQLVQSGAEVKKPGASVKVSCKASGYTFTSYYMHWVRQAPGQGLEWMGVINPSGGSTSYAQKFQGRVTMTRDTSTSTVYMELSSLRSEDTAVYYCARESQYYDVHGMDVWGQGTTVTVSS VL: DIQMTQSPSSLSASVGDRVTITCRASQSISSYLNWYQQKPGKAPKLLIYAASSLQSGVPSRFSGSGSGTDFTLTISSLQPEDFATYYCQQQYTLPPTFGGGTKVEIK
1490	10.6	no binding (tested: 100 nM)	20.7	37.1	234	7.67	162	1.8	867	15.8	41.8	C-57 (antibody, V domains shown, human IgG1) VH: EVQLVESGGGLVQPGGSLRLSCAASGFTFSSYSMNWVRQAPGKGLEWVSYISSSSSTIYYADSVKGRFTISRDNAKNSLYLQMNSLRAEDTAVYYCARGGEGRPYLDIWGQGTMVTVSS VL: not shown
1560	10.5	no binding (tested: 100 nM)	19.7	41.6	230	4.98	136	1.1	846	15.7	40	C-56 (antibody, V domains shown, human IgG1) VH: EVQLVESGGGLVQPGGSLRLSCAASGFTFSSYWMSWVRQAPGKGLEWVANIKQDGSEKYYVDSVKGRFTISRDNAKNSLYLQMNSLRAEDTAVYYCARDYGSVAGTPFDYWGQGTLVTVSS VL: DIQMTQSPSSLSASVGDRVTITCRASQSISSYLNWYQQKPGKAPKLLIYAASSLQSGVPSRFSGSGSGTDFTLTISSLQPEDFATYYCQQVLHTPLTFGGGTKVEIK
